Results taken from patent US20160138027A1 (Stanford University, published 2016).

Legend:
Rictor = biological target: T1, Rictor (human, UniProt Q6R327 1-1708); assay: FLAG co-immunoprecipitation from cross-linked HEK293T lysates, western blot (FIG. 6C)
T1 construct: Endogenous protein probed in the co-immunoprecipitate
Description: (§1) HEK293T cells were transfected with either MORTOR-3×FLAG or FLAG alone for 22 or 42 hours later. Cells were then starved of amino acids and serum for 4 hours and re-stimulated with amino acids for 5 minutes or left untreated. Cells were cross-linked and harvested and FLAG immunoprecipitation was used to test for interactions with endogenous proteins. […] HEK293T cells were transfected with either MORTOR-3×FLAG, MORTOR-1×FLAG (CMV), or FLAG only and treated as in FIG. 6A.
(§2) One day before transfection, 2,000,000 HEK293T cells were plated in 10 cm culture dishes. The cells were transfected with 2 μg of cDNA expression vectors using Lipofectamine 2000 (Life Technologies). Four hours after transfection, the cells were washed and incubated in DMEM with 10% FBS without antibiotics for 18 hours. When amino acid sensitivity was investigated, cells were transfected for 18 or 38 hours followed by 4 hours of amino acid starvation. The cells were then stimulated with amino acid for 7 minutes. The cells were incubated in Triton X-100 lysis buffer (1% Triton X-100, 40 mM HEPES pH 7.4, 2 mM EDTA, 200 mM NaCl, phosSTOP and protease inhibitor cocktail (Roche)) for 1 hour, followed by sonication at 4° C. For in-cell crosslinking experiments, DSP was used as previously described (Sancak, Y., et al. (2008) “The Rag GTPases Bind Raptor and Mediate Amino Acid Signaling to MTORC1,” Science, 320:1496-1501) prior to cell lysis. The lysates were centrifuged at 20,000×g for 30 minutes. For immunoprecipitation, primary antibodies were cross-linked to Protein G beads (Life technologies) using DMP (Thermo scientific). For anti-FLAG-immunoprecipitation, the FLAG-M2 affinity gel (Life technologies) was used. The cleared lysates were incubated with the beads at 4° C. for 2 hours or overnight. The beads were washed five times with ice-cold lysis buffer. Immunoprecipitated proteins were denatured in the SDS sample buffer and separated by SDS-PAGE. The intensity of bands were quantified using ImageJ (NIH).

ATP6V1A = biological target: T2, ATP6V1A (human, UniProt P38606 1-617); assay: as above
T2 construct: Endogenous protein probed in the co-immunoprecipitate
Description: as §1, §2

p62 = biological target: T3, p62 (human, UniProt Q13501 2-440); assay: as above
T3 construct: Endogenous protein probed with anti-p62 from BD Transduction Laboratories
Description: as §1, §2

LRS = biological target: T4, LRS (human, UniProt Q9P2J5 1-1176); assay: FLAG co-immunoprecipitation from HEK293T lysates, western blot
T4 construct: Endogenous protein probed in the co-immunoprecipitate; also called Leucyl tRNA synthetase
T4 sequence (Q9P2J5 whole entry): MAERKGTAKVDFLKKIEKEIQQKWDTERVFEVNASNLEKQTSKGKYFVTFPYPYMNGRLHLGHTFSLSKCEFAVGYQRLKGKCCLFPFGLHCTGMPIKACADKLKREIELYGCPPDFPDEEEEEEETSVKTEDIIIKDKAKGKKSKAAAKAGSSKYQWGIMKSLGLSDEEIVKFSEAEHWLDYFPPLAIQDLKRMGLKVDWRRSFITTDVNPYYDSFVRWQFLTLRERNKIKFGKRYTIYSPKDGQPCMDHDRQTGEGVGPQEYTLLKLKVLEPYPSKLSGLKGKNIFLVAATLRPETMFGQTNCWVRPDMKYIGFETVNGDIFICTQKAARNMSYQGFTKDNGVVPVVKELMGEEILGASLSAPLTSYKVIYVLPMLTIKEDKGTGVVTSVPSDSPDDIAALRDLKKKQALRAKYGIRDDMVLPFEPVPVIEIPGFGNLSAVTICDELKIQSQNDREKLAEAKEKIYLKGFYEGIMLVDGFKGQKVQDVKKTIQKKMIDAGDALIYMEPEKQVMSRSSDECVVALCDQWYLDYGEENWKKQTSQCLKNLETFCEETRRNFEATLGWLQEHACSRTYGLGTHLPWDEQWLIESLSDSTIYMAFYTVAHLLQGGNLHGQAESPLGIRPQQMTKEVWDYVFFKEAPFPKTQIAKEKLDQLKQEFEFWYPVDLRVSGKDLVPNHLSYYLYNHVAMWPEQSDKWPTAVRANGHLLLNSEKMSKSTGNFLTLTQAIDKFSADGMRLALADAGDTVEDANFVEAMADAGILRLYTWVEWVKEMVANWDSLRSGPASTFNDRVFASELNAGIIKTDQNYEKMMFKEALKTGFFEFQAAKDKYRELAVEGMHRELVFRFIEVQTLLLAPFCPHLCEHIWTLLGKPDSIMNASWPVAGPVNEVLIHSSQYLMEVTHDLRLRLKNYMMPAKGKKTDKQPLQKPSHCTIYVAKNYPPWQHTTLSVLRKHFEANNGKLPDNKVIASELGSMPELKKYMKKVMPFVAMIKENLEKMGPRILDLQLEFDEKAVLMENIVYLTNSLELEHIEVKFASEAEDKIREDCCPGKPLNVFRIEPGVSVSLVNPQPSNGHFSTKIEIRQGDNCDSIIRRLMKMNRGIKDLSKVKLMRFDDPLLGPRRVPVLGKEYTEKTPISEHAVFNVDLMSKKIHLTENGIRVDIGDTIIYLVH

T2 sequence (P38606 whole entry): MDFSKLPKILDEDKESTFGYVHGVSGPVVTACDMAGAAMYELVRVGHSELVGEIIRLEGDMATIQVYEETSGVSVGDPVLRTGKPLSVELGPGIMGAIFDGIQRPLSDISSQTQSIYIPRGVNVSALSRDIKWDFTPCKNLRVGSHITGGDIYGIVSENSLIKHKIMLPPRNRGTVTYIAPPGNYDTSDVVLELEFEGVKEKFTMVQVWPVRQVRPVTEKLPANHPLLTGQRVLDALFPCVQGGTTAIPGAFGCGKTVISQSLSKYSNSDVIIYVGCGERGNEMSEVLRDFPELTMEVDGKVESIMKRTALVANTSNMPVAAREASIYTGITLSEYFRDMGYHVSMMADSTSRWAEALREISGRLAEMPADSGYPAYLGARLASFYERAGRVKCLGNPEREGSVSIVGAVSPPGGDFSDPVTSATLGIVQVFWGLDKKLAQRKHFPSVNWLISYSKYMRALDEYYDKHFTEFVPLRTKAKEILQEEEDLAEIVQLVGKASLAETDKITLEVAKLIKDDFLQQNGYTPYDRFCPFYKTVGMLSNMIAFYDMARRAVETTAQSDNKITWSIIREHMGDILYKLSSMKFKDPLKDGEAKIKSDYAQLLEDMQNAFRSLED
T1 sequence (Q6R327 whole entry): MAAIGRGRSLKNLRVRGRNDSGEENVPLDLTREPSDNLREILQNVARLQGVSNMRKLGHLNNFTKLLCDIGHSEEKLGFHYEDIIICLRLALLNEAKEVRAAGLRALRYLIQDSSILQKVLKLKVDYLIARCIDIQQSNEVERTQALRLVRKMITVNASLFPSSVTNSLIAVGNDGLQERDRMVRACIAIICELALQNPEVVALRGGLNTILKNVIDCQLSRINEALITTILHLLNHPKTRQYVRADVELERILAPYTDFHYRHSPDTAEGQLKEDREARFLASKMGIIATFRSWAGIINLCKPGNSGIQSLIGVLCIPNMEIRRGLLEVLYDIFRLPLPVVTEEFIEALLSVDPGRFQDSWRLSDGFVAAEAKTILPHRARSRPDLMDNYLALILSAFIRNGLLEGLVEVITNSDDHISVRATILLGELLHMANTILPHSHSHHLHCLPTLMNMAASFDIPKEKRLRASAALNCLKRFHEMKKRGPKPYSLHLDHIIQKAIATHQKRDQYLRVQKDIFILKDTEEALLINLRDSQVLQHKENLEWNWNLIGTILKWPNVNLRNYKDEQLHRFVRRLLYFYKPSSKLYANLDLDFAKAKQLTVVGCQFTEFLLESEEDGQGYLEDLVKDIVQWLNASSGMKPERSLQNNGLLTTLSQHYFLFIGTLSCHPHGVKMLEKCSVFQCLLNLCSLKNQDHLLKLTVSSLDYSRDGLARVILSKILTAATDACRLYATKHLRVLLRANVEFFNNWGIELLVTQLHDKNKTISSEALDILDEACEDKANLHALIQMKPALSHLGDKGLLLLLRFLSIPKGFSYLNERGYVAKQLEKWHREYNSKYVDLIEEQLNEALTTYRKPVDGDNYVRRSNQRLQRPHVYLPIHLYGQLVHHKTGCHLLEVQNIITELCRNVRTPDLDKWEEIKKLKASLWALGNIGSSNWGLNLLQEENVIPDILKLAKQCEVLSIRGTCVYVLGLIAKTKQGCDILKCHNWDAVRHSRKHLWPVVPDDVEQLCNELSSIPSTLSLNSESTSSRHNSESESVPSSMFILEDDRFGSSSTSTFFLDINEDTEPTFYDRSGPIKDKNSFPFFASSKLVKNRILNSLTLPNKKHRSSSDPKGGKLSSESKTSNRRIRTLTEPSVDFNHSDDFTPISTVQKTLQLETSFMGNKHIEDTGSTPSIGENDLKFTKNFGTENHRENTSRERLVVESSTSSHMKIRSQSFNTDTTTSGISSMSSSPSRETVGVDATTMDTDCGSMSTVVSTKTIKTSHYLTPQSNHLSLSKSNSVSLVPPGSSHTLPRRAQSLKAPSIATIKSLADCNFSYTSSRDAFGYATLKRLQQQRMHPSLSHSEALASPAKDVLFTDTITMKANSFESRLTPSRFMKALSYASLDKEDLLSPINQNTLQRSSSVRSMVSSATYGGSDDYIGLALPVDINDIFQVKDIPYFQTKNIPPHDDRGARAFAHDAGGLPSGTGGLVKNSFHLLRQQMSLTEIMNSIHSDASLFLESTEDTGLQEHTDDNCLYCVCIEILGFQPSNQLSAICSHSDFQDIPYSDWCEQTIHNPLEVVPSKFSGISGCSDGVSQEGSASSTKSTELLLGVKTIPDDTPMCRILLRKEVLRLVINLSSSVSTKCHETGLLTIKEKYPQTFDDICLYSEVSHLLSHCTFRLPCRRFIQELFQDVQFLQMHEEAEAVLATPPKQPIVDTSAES

binding result (Rictor): no binding | binding result (ATP6V1A): no binding | binding result (p62): no binding | binding result (LRS): no binding
B1: MORTOR-3×FLAG (receptor)
chain: MRPERPRPRGSAPGPMETPPWDPARNDSLPPTLTPAVPPYVKLGLTVVYTVFYALLFVFIYVQLWLVLRYRHKRLSYQSVFLFLCLFWASLRTVLFSFYFKDFVAANSLSPFVFWLLYCFPVCLQFFTLTLMNLYFTQVIFKAKSKYSPELLKYRLPLYLASLFISLVFLLVNLTCAVLVKTGNWERKVIVSVRVAINDTLFVLCAVSLSICLYKISKMSLANIYLESKGSSVCQVTAIGVTVILLYTSRACYNLFILSFSQNKSVHSFDYDWYNVSDQADLKNQLGDAGYVLFGVVLFVWELLPTTLVVYFFRVRNPTKDLTNPGMVPSHGFSPRSYFFDNPRRYDSDDDLAWNIAPQGLQGGFAPDYYDWGQQTNSFLAQAGTLQDSTLDPDKPSLG
notes: Expressed from pBMN-GPR137b-3×FLAG in HEK293T or HeLa cells and immunoprecipitated from lysates on FLAG-M2 gel; also called GPR137b-3×FLAG; MORTOR-FLAG; not shown: 3×FLAG tag
